According to the Human Domainome abundance scans (Beltran et al. 2025):
± gives the uncertainty stated by the source.

B1: Androgen receptor, residues 557 to 632; numbered along this chain, P10275 (parent)
chain: QKTCLICGDEASGCHYGALTCGSCKVFFKRAAEGKQKYLCASRNDCTIDKFRRKNCPSCRLRKCYEAGMTLGARKL
B2: KAT8 regulatory NSL complex subunit 2, residues 28 to 91; numbered along this chain, Q9H9L4 (parent)
chain: CAFTHRPCSHPRLEGQEFCIKHILEDKNAPFKQCSYISTKNGKRCPNAAPKPEKKDGVSFCAEH

Variants of: B1
Assay: abundance fitness (aPCA) (normalised: wild type 0, dead -1); higher = more abundant; growth selection in yeast, the domain comes from the species named
Settings: Homo sapiens

| Variant | abundance fitness |
| --- | --- |
| QKTCLICGDEANGCHYGALTCGSCKVFFKRAAEGKQKYLCASRNDCTIDKFRRKNCPSCRLRKCYEAGMTLGARKL [S12N] | 0.21 ± 0.1 |
| QKTCLICGDEASGCHYGALTCGSCKVFFKRAAEGKQKYLCASRNDCTIDKFKRKNCPSCRLRKCYEAGMTLGARKL [R52K] | -0.033 ± 0.11 |
| QKTCLICGDEASDCHYGALTCGSCKVFFKRAAEGKQKYLCASRNDCTIDKFRRKNCPSCRLRKCYEAGMTLGARKL [G13D] | -0.198 ± 0.13 |
| QKTCLICGDEASWCHYGALTCGSCKVFFKRAAEGKQKYLCASRNDCTIDKFRRKNCPSCRLRKCYEAGMTLGARKL [G13W] | -0.571 ± 0.12 |
| QKTCLICGDEASGCHYGALLCGSCKVFFKRAAEGKQKYLCASRNDCTIDKFRRKNCPSCRLRKCYEAGMTLGARKL [T20L] | -0.166 ± 0.043 |
| QKTCLICGDEASGCHYGALTCGSCKVFFKRAACGKQKYLCASRNDCTIDKFRRKNCPSCRLRKCYEAGMTLGARKL [E33C] | 0.072 ± 0.071 |
| QKTCLICHDEASGCHYGALTCGSCKVFFKRAAEGKQKYLCASRNDCTIDKFRRKNCPSCRLRKCYEAGMTLGARKL [G8H] | -0.06 ± 0.17 |
| QKTCLICGDEASGCHYGALTCGSCKVFFKRAAEGKQKYLCFSRNDCTIDKFRRKNCPSCRLRKCYEAGMTLGARKL [A41F] | -0.113 ± 0.09 |
| QKTCLICGDEASGCHYGALTCGSCKVFFKRAAEGKQKYLCRSRNDCTIDKFRRKNCPSCRLRKCYEAGMTLGARKL [A41R] | -0.051 ± 0.064 |
| QKTCLICGDEASGCHYGALTCGSCKVFFKRAAEGKQKYLCASRNDCTIDKFRRKNCPSCRLRKCYEAGMTLGERKL [A73E] | 0.013 ± 0.068 |
| QKTCLICGDEASGCHYGALTCGSCKVFFKRAAEGKQKYLCASRNDCTIDKFRRKNCPSCRLRKCYEAGMTLGRRKL [A73R] | 0.008 ± 0.059 |
| QKTCLICGDEASGPHYGALTCGSCKVFFKRAAEGKQKYLCASRNDCTIDKFRRKNCPSCRLRKCYEAGMTLGARKL [C14P] | -0.057 ± 0.21 |
| QKTCLICGDEASGCHYGALTCGSCKVFFKRAAEGKQKILCASRNDCTIDKFRRKNCPSCRLRKCYEAGMTLGARKL [Y38I] | 0.111 ± 0.1 |
| QKTCLICGDEASGCHYGSLTCGSCKVFFKRAAEGKQKYLCASRNDCTIDKFRRKNCPSCRLRKCYEAGMTLGARKL [A18S] | -0.142 ± 0.048 |
| QKTCLICGDEASGCHYGFLTCGSCKVFFKRAAEGKQKYLCASRNDCTIDKFRRKNCPSCRLRKCYEAGMTLGARKL [A18F] | -0.684 ± 0.12 |
| QKTCLICGDEASGCHYGALTCGSCKVFFKRAAEGKQKYLCASRNDCTIDKFRRKNCPSCRLRKCYEAGMTNGARKL [L71N] | -0.129 ± 0.072 |
| QKTCLICGDEASGCHYGALTCGSCKVFFKRAAEGKQKYLCASRNDCTIVKFRRKNCPSCRLRKCYEAGMTLGARKL [D49V] | -0.512 ± 0.1 |
| QKTCLICGDEASGCHYGALTCGSCKVFFKRAAEGKQKYLCASRNVCTIDKFRRKNCPSCRLRKCYEAGMTLGARKL [D45V] | -0.12 ± 0.062 |
| QKTCLICGDEASGCHYGALTCGSCKVFFKRAAEGTQKYLCASRNDCTIDKFRRKNCPSCRLRKCYEAGMTLGARKL [K35T] | 0.039 ± 0.053 |
| QKVCLICGDEASGCHYGALTCGSCKVFFKRAAEGKQKYLCASRNDCTIDKFRRKNCPSCRLRKCYEAGMTLGARKL [T3V] | -0.245 ± 0.063 |
| QKTCLICGDEASGCHYGALTCGSCKVFFKRAAEGKQQYLCASRNDCTIDKFRRKNCPSCRLRKCYEAGMTLGARKL [K37Q] | 0.079 ± 0.081 |
| QKTCLICGDEASGCHYGALTCGSCKVFFKRAAEGKQRYLCASRNDCTIDKFRRKNCPSCRLRKCYEAGMTLGARKL [K37R] | -0.054 ± 0.045 |
| QKTCLICGDEASGCHYGALTCGSCKVWFKRAAEGKQKYLCASRNDCTIDKFRRKNCPSCRLRKCYEAGMTLGARKL [F27W] | -0.387 ± 0.046 |
| QKTCLICGDEASGCHYGALTCGSCKVFFKRAAEGKQKYLCASRNDCTIDKFRRKNCPTCRLRKCYEAGMTLGARKL [S58T] | -0.229 ± 0.068 |
| FKTCLICGDEASGCHYGALTCGSCKVFFKRAAEGKQKYLCASRNDCTIDKFRRKNCPSCRLRKCYEAGMTLGARKL [Q1F] | 0.16 ± 0.14 |

Variants of: B2
Assay: as above
Settings: Homo sapiens

| Variant | abundance fitness |
| --- | --- |
| CAFTHRPCSHPRLEGQEFCIKHILEDKNAPFKQCSYISTKNGKRCPNAAPKPEKKDGVSFYAEH [C61Y] | -0.585 ± 0.081 |
| CAFTHRPCSHPRLEGQEFCIKHILEDKNAPFKQCSYISTKNGKRCPNAAPKPEKKDGVSFCAQH [E63Q] | -0.175 ± 0.091 |
| CAFTHRPCSHPRLEGQEFCIKHILEDKNAPFKQCSYISTKNGKRCPNAAPKPEKKDGVSFCAAH [E63A] | -0.064 ± 0.063 |
| CAFTHRPCSHPRLEGQEFCIKHILEDKNAPFKQCSYISTKNGKRCPNAAPKPEKKDGVSFCAPH [E63P] | -0.188 ± 0.091 |
| CAFTHRPCSHPRLEGQEFCIKHILEDKNAPFKQCSYISTKNGKRCPNAAPKPEKKDGVSFCAMH [E63M] | -0.165 ± 0.075 |
| CAFTHRPCSHPRLEGQEFCIKHILEDKNAPFKQCSYISTKNGKRCPNAAPKPEKKDGVSFCATH [E63T] | -0.054 ± 0.065 |
| CAFTHRPCSHPRLEGQEFCIKHILEDKNAPFKQCSYISTKNGKRCPNAAPKPEKKDGVSFCACH [E63C] | -0.111 ± 0.077 |
| CAFTHRPCSHPRLEGQEFCIKHILEDKNAPFKQCSYISTKNGKRCPNAAPKPEKKDGVSFCAKH [E63K] | -0.09 ± 0.085 |
| CAFTHRPCSHPRLEGQEFCIKHILEDKNAPFKQCSYISTKNGKRCPNAAPKPEKKDGVSFCAGH [E63G] | -0.034 ± 0.05 |
| CAFTHRPCSHPRLEGQEFCIKHILEDKNAPFKQCSYISTKNGKRCPNAAPKPEKKDGVSFCASH [E63S] | -0.093 ± 0.047 |
| CAFTHRPCSHPRLEGQEFCIKHILEDKNAPFKQCSYISTKNGKRCPNAAPKPEKKDGVSFCADH [E63D] | 0.003 ± 0.06 |
| CAFTHRPCSHPRLEGQEFCIKHILEDKNAPFKQCSYISTKNGKRCPNAAPKPEKKDGVSFCAYH [E63Y] | -0.138 ± 0.08 |
| CAFTHRPCSHPRLEGQEFCIKHILEDKNAPFKQCSYISTKNGKRCPNAAPKPEKKDGVSFCAVH [E63V] | -0.175 ± 0.052 |
| CAFTHRPCSHPRLEGQEFCIKHILEDKNAPFKQCSYISTKNGKRCPNAAPKPEKKDGVSFCAFH [E63F] | -0.107 ± 0.079 |
| CAFTHRPCSHPRLEGQEFCIKHILEDKNAPFKQCSYISTKNGKRCPNAAPKPEKKDGVSFCAWH [E63W] | -0.086 ± 0.057 |
